Where two headings read alike, the source gives them in different places. Non-standard residues stand in square brackets, D forms with d. No end group written: not given here.
Experiments:
human NMUR1 [1] = molecular target: T1, human NMUR1 (human, UniProt Q9HB89 1-426); experiment: cell-based or functional assay
T1 sequence (looked up): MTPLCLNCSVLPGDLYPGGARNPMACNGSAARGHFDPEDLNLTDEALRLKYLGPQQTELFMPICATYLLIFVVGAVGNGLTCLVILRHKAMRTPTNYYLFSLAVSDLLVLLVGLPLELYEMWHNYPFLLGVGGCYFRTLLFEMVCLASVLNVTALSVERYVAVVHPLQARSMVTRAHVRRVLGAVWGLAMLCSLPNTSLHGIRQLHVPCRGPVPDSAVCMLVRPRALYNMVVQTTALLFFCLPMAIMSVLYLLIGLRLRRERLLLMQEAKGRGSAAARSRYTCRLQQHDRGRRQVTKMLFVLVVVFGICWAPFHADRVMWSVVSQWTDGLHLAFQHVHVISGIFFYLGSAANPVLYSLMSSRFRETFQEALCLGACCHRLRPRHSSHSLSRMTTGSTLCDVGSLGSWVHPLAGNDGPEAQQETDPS

human NMUR2 [2] = molecular target: T2, human NMUR2 (human, UniProt Q9GZQ4 1-415); experiment: cell-based or functional assay
mouse NMUR1-ATG [3] = molecular target: T3, mouse NMUR1-ATG (mouse, UniProt O55040 1-428); experiment: cell-based or functional assay
T3 sequence (looked up): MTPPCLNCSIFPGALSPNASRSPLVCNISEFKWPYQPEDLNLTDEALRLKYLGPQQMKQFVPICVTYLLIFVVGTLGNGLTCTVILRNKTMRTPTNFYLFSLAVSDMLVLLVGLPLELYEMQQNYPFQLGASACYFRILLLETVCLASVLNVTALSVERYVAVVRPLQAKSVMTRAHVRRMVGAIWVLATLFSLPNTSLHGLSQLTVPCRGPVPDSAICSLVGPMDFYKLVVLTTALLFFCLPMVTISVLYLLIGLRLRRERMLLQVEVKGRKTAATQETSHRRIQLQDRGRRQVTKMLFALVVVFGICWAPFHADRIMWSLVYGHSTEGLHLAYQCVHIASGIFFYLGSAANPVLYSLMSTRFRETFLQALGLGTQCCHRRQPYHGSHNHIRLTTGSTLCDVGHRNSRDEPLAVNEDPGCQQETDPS

mouse NMUR1-CTG [4] = molecular target: T4, mouse NMUR1-CTG (mouse, UniProt O55040 1-428); experiment: cell-based or functional assay
T4 sequence (looked up): T3 sequence (looked up)

mouse NMUR2 [5] = molecular target: T5, mouse NMUR2 (mouse, UniProt Q8BZ39 1-395); experiment: cell-based or functional assay
rat NMUR1-ATG [6] = molecular target: T6, rat NMUR1-ATG (rat, UniProt Q9JJI5 1-425); experiment: cell-based or functional assay
T6 sequence (looked up): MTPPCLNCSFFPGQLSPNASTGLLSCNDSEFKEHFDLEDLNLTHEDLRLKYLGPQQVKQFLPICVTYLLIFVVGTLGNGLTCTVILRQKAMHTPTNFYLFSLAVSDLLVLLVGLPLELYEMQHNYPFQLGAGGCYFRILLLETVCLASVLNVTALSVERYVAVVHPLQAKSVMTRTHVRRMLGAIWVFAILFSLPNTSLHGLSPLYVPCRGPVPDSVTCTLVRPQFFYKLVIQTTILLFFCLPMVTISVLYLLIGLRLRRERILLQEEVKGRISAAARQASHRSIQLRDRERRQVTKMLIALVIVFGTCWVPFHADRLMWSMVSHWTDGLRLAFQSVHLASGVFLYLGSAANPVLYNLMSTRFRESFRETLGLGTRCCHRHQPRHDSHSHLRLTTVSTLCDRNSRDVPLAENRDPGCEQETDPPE

rat NMUR1-TTG [7] = molecular target: T7, rat NMUR1-TTG (rat, UniProt Q9JJI5 1-425); experiment: cell-based or functional assay
T7 sequence (looked up): T6 sequence (looked up)

rat NMUR2 [8] = molecular target: T8, rat NMUR2 (rat, UniProt Q9ESQ4 1-395); experiment: cell-based or functional assay
human NMUR1 [9] = molecular target: T1, human NMUR1; experiment: cell-based or functional assay; remark: listed apart in the source
human NMUR2 [10] = molecular target: T2, human NMUR2; experiment: cell-based or functional assay; remark: listed apart in the source
human NMUR1 [11] = molecular target: T1, human NMUR1; experiment: 125I-hNMU-25 displacement, cell membranes
human NMUR2 [12] = molecular target: T2, human NMUR2; experiment: 125I-hNMU-25 displacement, cell membranes
mouse NMUR1-ATG [13] = molecular target: T3, mouse NMUR1-ATG; experiment: 125I-hNMU-25 displacement, cell membranes
mouse NMUR1-CTG [14] = molecular target: T4, mouse NMUR1-CTG; experiment: 125I-hNMU-25 displacement, cell membranes
mouse NMUR2 [15] = molecular target: T5, mouse NMUR2; experiment: 125I-hNMU-25 displacement, cell membranes
rat NMUR1-ATG [16] = molecular target: T6, rat NMUR1-ATG; experiment: 125I-hNMU-25 displacement, cell membranes
rat NMUR1-TTG [17] = molecular target: T7, rat NMUR1-TTG; experiment: 125I-hNMU-25 displacement, cell membranes
rat NMUR2 [18] = molecular target: T8, rat NMUR2; experiment: 125I-hNMU-25 displacement, cell membranes
human NMUR1 [19] = molecular target: T1, human NMUR1; experiment: 125I-hNMU-25 displacement, HEK cell membranes
In short: (§1)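 HEK cell membranes (2-5 μg) incubated with […] ¹²⁵I-hNMU-25 and peptides for 80 min at room temperature in TrisCl pH 7.4 buffer with MgCl₂, EDTA, bacitracin and phosphoramidon. Bound ligand collected by filtration and scintillation counting; nonspecific binding with 1 μM hNMU-25. IC₅₀ from curve fitting.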

human NMUR2 [20] = molecular target: T2, human NMUR2; experiment: 125I-hNMU-25 displacement, HEK cell membranes
In short: as §1

T2 sequence (Q9GZQ4 whole entry): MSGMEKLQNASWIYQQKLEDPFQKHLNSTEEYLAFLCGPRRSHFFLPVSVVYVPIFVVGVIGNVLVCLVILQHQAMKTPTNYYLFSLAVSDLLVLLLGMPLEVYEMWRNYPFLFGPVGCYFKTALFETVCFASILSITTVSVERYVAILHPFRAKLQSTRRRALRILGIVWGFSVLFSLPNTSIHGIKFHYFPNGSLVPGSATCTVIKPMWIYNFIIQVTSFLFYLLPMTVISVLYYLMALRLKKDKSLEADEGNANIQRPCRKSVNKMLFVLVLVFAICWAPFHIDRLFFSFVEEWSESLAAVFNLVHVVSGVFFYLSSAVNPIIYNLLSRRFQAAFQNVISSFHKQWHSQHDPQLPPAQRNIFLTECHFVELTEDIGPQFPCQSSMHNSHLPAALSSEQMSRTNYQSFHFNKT
T8 sequence (Q9ESQ4 whole entry): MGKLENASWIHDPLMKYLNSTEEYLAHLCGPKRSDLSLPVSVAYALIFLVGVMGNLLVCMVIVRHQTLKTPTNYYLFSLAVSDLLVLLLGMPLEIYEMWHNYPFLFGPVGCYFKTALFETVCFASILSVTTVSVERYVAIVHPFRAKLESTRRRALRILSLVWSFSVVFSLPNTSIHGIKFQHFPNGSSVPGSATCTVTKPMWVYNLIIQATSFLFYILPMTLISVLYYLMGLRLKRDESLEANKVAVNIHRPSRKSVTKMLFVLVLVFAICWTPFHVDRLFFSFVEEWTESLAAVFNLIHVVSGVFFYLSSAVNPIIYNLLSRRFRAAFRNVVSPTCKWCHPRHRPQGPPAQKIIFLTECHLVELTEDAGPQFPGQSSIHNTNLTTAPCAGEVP
T5 sequence (Q8BZ39 whole entry): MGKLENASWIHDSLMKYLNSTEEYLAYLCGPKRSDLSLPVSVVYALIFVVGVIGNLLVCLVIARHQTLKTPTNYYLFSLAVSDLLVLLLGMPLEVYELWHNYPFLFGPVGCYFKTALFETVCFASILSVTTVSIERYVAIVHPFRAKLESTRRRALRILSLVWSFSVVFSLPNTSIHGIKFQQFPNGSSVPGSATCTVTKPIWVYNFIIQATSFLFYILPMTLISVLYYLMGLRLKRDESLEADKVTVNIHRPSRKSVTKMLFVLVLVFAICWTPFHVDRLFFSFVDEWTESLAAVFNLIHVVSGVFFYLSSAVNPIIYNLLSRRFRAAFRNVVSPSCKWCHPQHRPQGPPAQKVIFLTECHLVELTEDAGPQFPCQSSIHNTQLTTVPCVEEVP

% activity (human NMUR1 [1]): 90%
IC50 (nM), functional (human NMUR1 [1]): 1.25 nM
% activity (human NMUR2 [2]): 0%
IC50 (nM), functional (human NMUR2 [2]): > 1000 nM
% activity (mouse NMUR1-ATG [3]): 90%
IC50 (nM), functional (mouse NMUR1-ATG [3]): 25 nM
% activity (mouse NMUR1-CTG [4]): 77%
IC50 (nM), functional (mouse NMUR1-CTG [4]): 66 nM
% activity (mouse NMUR2 [5]): 40%
IC50 (nM), functional (mouse NMUR2 [5]): > 1000 nM
% activity (rat NMUR1-ATG [6]): 95%
IC50 (nM), functional (rat NMUR1-ATG [6]): 31.1 nM
% activity (rat NMUR1-TTG [7]): 91%
IC50 (nM), functional (rat NMUR1-TTG [7]): 153 nM
% activity (rat NMUR2 [8]): 42%
IC50 (nM), functional (rat NMUR2 [8]): > 1000 nM
% activity (human NMUR1 [9]): 88%
IC50 (nM), functional (human NMUR1 [9]): 19 nM
IC50 (nM), functional (human NMUR2 [10]): > 1000 nM
% inhibition of NMU-25 binding (human NMUR1 [11]): 93%
IC50 (human NMUR1 [11]): 1.1 nM
% inhibition of NMU-25 binding (human NMUR2 [12]): 7%
IC50 (human NMUR2 [12]): 782 nM
% inhibition of NMU-25 binding (mouse NMUR1-ATG [13]): 77%
IC50 (mouse NMUR1-ATG [13]): 66 nM
% inhibition of NMU-25 binding (mouse NMUR1-CTG [14]): 83%
IC50 (mouse NMUR1-CTG [14]): 25 nM
% inhibition of NMU-25 binding (mouse NMUR2 [15]): 20%
% inhibition of NMU-25 binding (rat NMUR1-ATG [16]): 100%
IC50 (rat NMUR1-ATG [16]): 15.9 nM
% inhibition of NMU-25 binding (rat NMUR1-TTG [17]): 100%
IC50 (rat NMUR1-TTG [17]): 11 nM
% inhibition of NMU-25 binding (rat NMUR2 [18]): 0%
% activity (binding) (human NMUR1 [19]): 93%
IC50 (human NMUR1 [19]): 1.1 nM
% activity (binding) (human NMUR2 [20]): 7%
IC50 (human NMUR2 [20]): 780 nM
Binder: FRVDEEFQSPFASQSRGYF[dL]WRPRN-NH2 (not fully specified) [neuromedin U receptor agonist H]

From patent publication US20070244048A1 (published 2007)
